These results are taken from publication PMC6834639 (Nature Communications, 2019).

Like-named read-outs stand apart in the source and are kept apart here. Square brackets hold non-standard residues; d marks the D form. Ends that are not written are not given here.

The assay has as its target tetrameric transthyretin (TTR) (Homo sapiens, UniProt P02766). Nature of the assay: In-solution kinetics analysis of TTR-Aβ interactions via OpenSPR. The note with it: for koff: dissociation rate constant. The format is binding. Here is the method: One of the most common applications of SPR is the analysis and quantification of the interactions between proteins. SPR experiments were performed using a Nicoya Lifesciences OpenSPR system equipped with a COOH chip. Following the start-up procedure found in the OpenSPR™ manual, setup the OpenSPR™ instrument and load a COOH Sensor Chip. The COOH surface was activated following the instructions included in the Amine kit. The ligand was diluted to a concentration of 45 μg/mL into immobilization buffer (provided by Nicoya Lifesciences, pH 4.5) and 100 μL was injected at 20 μL/min for a 5-min interaction time. […] Immobilization was monitored via absorbance change in a standard solution of filtered buffer (PBS, pH 6.8, with 0.005% Tween 20) for 5 min at a flow rate of 50 μl/min. The surface was blocked with an injection of 100 μL of blocking buffer (provided by Nicoya Lifesciences, 1 M ethanolamine, pH 8.5). […] An association time of 150 s and a dislocation time of 400 s were used. The surface was regenerated with an injection of regeneration buffer (HCl 10 mM, pH 2.0) at a speed of 150 μL/min between each analyte injection. The chip was washed in 10 mM HCl (pH 2.0) to remove impurities. Data were collected at a rate of 5 Hz and was single referenced with blank injections. Data were fit to a 1:1 interaction model using the analysis software TraceDrawer.

Where [1] appears, read: OpenSPR, Replicate #1, read-out: ka.
Setting [2] is: OpenSPR, Replicate #2, read-out: ka.
The mark [3] stands for this setting: OpenSPR, Replicate #3, read-out: ka.
Setting [4] is: pH 6.8, OpenSPR, association rate constant, immobilized TTR, PBS pH 6.8, 0.005% Tween 20, 1:1 model, average of three ± SD, read-out: Ka (1/(M*s)) × 10^−2.
The mark [5] stands for this setting: OpenSPR, association rate constant, immobilized TTR, PBS pH 6.8, 0.005% Tween 20, 1:1 model, average of three ± SD.
The mark [6] stands for this setting: OpenSPR, immobilized TTR, PBS pH 6.8, 0.005% Tween 20, 1:1 model, average of three ± SD.

Take `CC[C@H](C)[C@H](NC(=O)[C@H](C)NC(=O)CNC(=O)[C@H](CCCCN)NC(=O)[C@H](CC(N)=O)NC(=O)[C@H](CO)NC(=O)CNC(=O)[C@@H](NC(=O)[C@H](CC(=O)O)NC(=O)[C@H](CCC(=O)O)NC(=O)[C@H](C)NC(=O)[C@H](Cc1ccccc1)NC(=O)[C@H](Cc1ccccc1)NC(=O)[C@@H](NC(=O)[C@@H](N)CC(C)C)C(C)C)C(C)C)C(=O)N[C@H](C(=O)NCC(=O)N[C@@H](CC(C)C)C(=O)N[C@@H](CCSC)C(=O)N[C@H](C(=O)O)C(C)C)[C@@H](C)CC` [WT Aβ (17–36)]: the kon amounted to 886 M⁻¹ s⁻¹ under setting [1], 586 M⁻¹ s⁻¹ under setting [2], 603 M⁻¹ s⁻¹ under setting [3] and 690 ± 80 M⁻¹ s⁻¹ under setting [4].
As to `CC[C@H](C)[C@H](NC(=O)[C@H](C)NC(=O)CNC(=O)[C@H](CCCCN)NC(=O)[C@H](CC(N)=O)NC(=O)[C@@H](CO)NC(=O)CNC(=O)[C@@H](NC(=O)[C@@H](CC(=O)O)NC(=O)[C@H](CCC(=O)O)NC(=O)[C@H](C)NC(=O)[C@H](Cc1ccccc1)NC(=O)[C@H](Cc1ccccc1)NC(=O)[C@@H](NC(=O)[C@@H](N)CC(C)C)C(C)C)C(C)C)C(=O)N[C@H](C(=O)NCC(=O)N[C@@H](CC(C)C)C(=O)N[C@@H](CCSC)C(=O)N[C@H](C(=O)O)C(C)C)[C@@H](C)CC` [dDdS Aβ (17–36)], the kon is, setting by setting: under setting [1], 3490 M⁻¹ s⁻¹; under setting [2], 818 M⁻¹ s⁻¹; under setting [3], 1470 M⁻¹ s⁻¹; under setting [4], 1930 ± 700 M⁻¹ s⁻¹. Besides, the “binding dissociation rate constant higher than the WT Aβ (17–36) fragment” value (OpenSPR, tetrameric TTR, relative to WT Aβ (17–36)) was ~ 13 folds.
The term Kd denotes the free concentration of one partner at which half of the binding sites on the other are occupied at equilibrium, for simple one-to-one binding. Read a low Kd as a tighter complex. Under “OpenSPR, Replicate #1”, “dD Aβ (17–36): Aβ (17–36) with D-isomerized Asp (LVFFAE[dD]VGSNKGAIIGLMV)” displayed a Kd of 116 µM, a ka of 1720 M⁻¹ s⁻¹ and a kd of 0.199 s⁻¹. Further, where the note is “OpenSPR, Replicate #2”, the affinity, expressed as Kd, was 199 µM; the ka worked out at 489 M⁻¹ s⁻¹; the kd came out at 0.0975 s⁻¹. Where the note is “OpenSPR, Replicate #3”, the Kd came out at 133 µM, the ka amounted to 753 M⁻¹ s⁻¹ and the kd is 0.1 s⁻¹. The “Ka (1/(M*s)) × 10^−2” value under setting [5] was 9.9 ± 3.2 1/(M*s) × 10^−2. Further, the koff under setting [6] is given as 13.2 ± 2.9 1/s × 10^2.
For “dS Aβ (17–36): Aβ (17–36) with D-isomerized Ser (LVFFAEDVG[dS]NKGAIIGLMV)”, under “OpenSPR, Replicate #1”, the Kd came to 86.9 µM, the ka came to 1660 M⁻¹ s⁻¹ and the kd turned out to be 0.144 s⁻¹. For the setting “OpenSPR, Replicate #2”, this compound returned a Kd of 220 µM, a ka of 657 M⁻¹ s⁻¹ and a kd of 0.144 s⁻¹. For the setting “OpenSPR, Replicate #3”, this compound registered a dissociation constant Kd of 47.3 µM, a ka of 1150 M⁻¹ s⁻¹ and a kd of 0.0546 s⁻¹. In addition, the “Ka (1/(M*s)) × 10^−2” value under setting [5] is reported as 11.6 ± 2.5 1/(M*s) × 10^−2. The koff under setting [6] is 11.4 ± 2.6 1/s × 10^2.
